The results in this text go back to patent US20090081200A1.

Experiment [1] deals with full-length human tissue factor with C-terminal RGS-His6 tag, stably expressed on CHO-K1 cells (human) (UniProt P13726). Briefly: flow cytometry (FACScan) on stable CHO clone #TF34 expressing full-length hTF; first antibody 10 µg/ml, FITC-labeled goat anti-mouse IgG 1:50. Background: In flow cytometry, cells or beads pass a laser one at a time.
The target is the same in experiment [2]. In words: flow cytometry (FACScan) on stable CHO clone #TF48 expressing full-length hTF; first antibody 10 µg/ml, FITC-labeled goat anti-mouse IgG 1:50.

Chain of full-length human tissue factor with C-terminal RGS-His6 tag, stably expressed on CHO-K1 cells (human) (P13726 other isoform, or with tags, fused parts or gaps): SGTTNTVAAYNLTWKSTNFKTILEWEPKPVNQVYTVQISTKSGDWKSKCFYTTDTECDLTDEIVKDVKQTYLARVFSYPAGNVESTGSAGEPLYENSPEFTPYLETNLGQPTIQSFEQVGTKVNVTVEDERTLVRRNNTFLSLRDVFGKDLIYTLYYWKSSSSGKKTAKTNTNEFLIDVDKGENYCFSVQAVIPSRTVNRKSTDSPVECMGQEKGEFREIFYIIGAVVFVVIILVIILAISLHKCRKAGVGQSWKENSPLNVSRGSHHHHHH

As to “mouse anti-human TF mAb (Calbiochem, Cat. # 612161) (antibody)”, in experiment [1], the % Total in marker M1 (negative gate) was 0.42%; the % Total in marker M2 (positive gate) was 99.4%; the Geo Mean (FL1-H), marker All turned out to be 262; the Geo Mean (FL1-H), marker M1 turned out to be 8.16. This substance returned a Geo Mean (FL1-H), marker M2 in experiment [1] of 267. In experiment [2], this substance had a % Total in marker M1 (negative gate) of 0.99%; a % Total in marker M2 (positive gate) of 98.9%; a Geo Mean (FL1-H), marker All of 168; a Geo Mean (FL1-H), marker M1 of 7.54. In experiment [2], this substance displayed a Geo Mean (FL1-H), marker M2 of 174.
